The target of assay [1] is Reference peptide no. 54. Description: peptide microarray (RepliTope), Ala mutagenesis set.
For assay [2], the target named is Reference peptide no. 53. The description is as above.
For assay [3], the target named is human interleukin-2 (human) (UniProt P60568). Description: sandwich ELISA, biotinylated MAB602 on hIL-2 captured by coated 5344, no competitor. On the technique in general: An ELISA detects its analyte on a solid surface through an enzyme-linked reagent.
Assay [4] addresses T1, Reference peptide no. 10.
T1 sequence (peptide): INNYKNPKLTRMLTF
Description: peptide microarray (RepliTope), Ala mutagenesis set.

For assay [5], the target named is T2, Reference peptide no. 47.
T2 sequence (peptide): YKNPKLTRMLTFKFA
Described as above.

For assay [6], the target named is T3, Reference peptide no. 45.
T3 sequence (peptide): TRMLTAKFYMPKKAT
The description is as above.

Assay [7] concerns the target T4, Reference peptide no. 43.
T4 sequence (peptide): YKNPKLTRMLTAKFY
The assay is described as above.

In assay [8] the target is T5, Reference peptide no. 11.
T5 sequence (peptide): YKNPKLTRMLTFKFY
Described as above.

Assay [9] concerns the target T6, Reference peptide no. 12.
T6 sequence (peptide): PKLTRMLTFKFYMPK
Described as above.

The target in assay [10] is Reference peptide no. 54. The assay is described as above. This is another data set of the same source.
The target of assay [11] is Reference peptide no. 53. The assay is described as above. The source holds these as a separate data set.
Assay [12] deals with T7, Reference peptide no. 48.
T7 sequence (peptide): PKLTRMLTFKFAMPK
Described as above.

The target of assay [13] is T8, Reference peptide no. 42.
T8 sequence (peptide): INNYKNPKLTRMLTA
The description is as above.

The target in assay [14] is T9, Reference peptide no. 52.
T9 sequence (peptide): YKNPKLTRMLTAKFA
Described as above.

Assay [15] deals with T10, Reference peptide no. 13.
T10 sequence (peptide): TRMLTFKFYMPKKAT
The description is as above.

Assay [16] deals with T11, Reference peptide no. 49.
T11 sequence (peptide): TRMLTFKFAMPKKAT
The assay is described as above.

Assay [17] deals with T12, Reference peptide no. 44.
T12 sequence (peptide): PKLTRMLTAKFYMPK
The description is as above.

For assay [18], the target named is T13, Reference peptide no. 25.
T13 sequence (peptide): AQSKNFHLRPRDLIS
Nature of the assay: peptide microarray (RepliTope).

In assay [19] the target is T1, Reference peptide no. 10. Description: peptide microarray (RepliTope).
Assay [20] deals with T14, Reference peptide no. 23.
T14 sequence (peptide): EEVLNLAQSKNFHLR
Description: peptide microarray (RepliTope).

Assay [21] deals with T5, Reference peptide no. 11. Nature of the assay: peptide microarray (RepliTope).
Assay [22] concerns the target T6, Reference peptide no. 12. Nature of the assay: peptide microarray (RepliTope).
The target of assay [23] is T10, Reference peptide no. 13. Description: peptide microarray (RepliTope).
Assay [24] concerns the target T15, Reference peptide no. 26.
T15 sequence (peptide): KNFHLRPRDLISNIN
Description: peptide microarray (RepliTope).

The target in assay [25] is T16, Reference peptide no. 22.
T16 sequence (peptide): KPLEEVLNLAQSKNF
Nature of the assay: peptide microarray (RepliTope).

In assay [26] the target is T17, Reference peptide no. 24.
T17 sequence (peptide): LNLAQSKNFHLRPRD
Description: peptide microarray (RepliTope).

In assay [27] the target is murine IL-2 (mouse) (UniProt P04351). Nature of the assay: SPR, MAB602 amine-coupled on chip, mIL-2 at 1 nM or more.
Sequence of murine IL-2 (mouse) (P04351 21-169 limits assumed): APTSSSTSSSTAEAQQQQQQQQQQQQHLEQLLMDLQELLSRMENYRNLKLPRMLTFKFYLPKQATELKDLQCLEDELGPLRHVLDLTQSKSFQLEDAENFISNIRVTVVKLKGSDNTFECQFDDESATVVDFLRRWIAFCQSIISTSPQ
For assay [28], the target named is human interleukin-2 (human) (UniProt P60568). Nature of the assay: SPR, antibody amine-coupled on GLM chip, hIL-2 in solution. On the technique in general: In SPR one partner is held on a chip, and binding of the other changes the refractive index at the surface.

Like-named read-outs stand apart in the source and are kept apart here.

The Kd is the free concentration of one partner at which half of the binding sites on the other are occupied at equilibrium, for simple one-to-one binding. One may read the koff as the first-order rate constant of dissociation.

Sequence of human interleukin-2 (human) (P60568 21-153 limits assumed): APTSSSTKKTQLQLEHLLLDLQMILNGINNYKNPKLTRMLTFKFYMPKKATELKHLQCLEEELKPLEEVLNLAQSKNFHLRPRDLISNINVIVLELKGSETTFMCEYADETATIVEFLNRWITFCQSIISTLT

B1: NARA1 (antibody, mouse IgG2a, kappa)
heavy: QVQLQQSGAELVRPGTSVKVSCKASGYAFTNYLIEWVKQRPGQGLEWIGVINPGSGGTNYNEKFKGKATLTADKSSSTAYMQLSSLTSDDSAVYFCARWRGDGYYAYFDVWGAGTTVTVSSAKTTAPSVYPLAPVCGDTTGSSVTLGCLVKGYFPEPVTLTWNSGSLSSGVHTFPAVLQSDLYTLSSSVTVTSSTWPSQSITCNVAHPASSTKVDKKIEPRGPTIKPCPPCKCPAPNLLGGPSVFIFPPKIKDVLMISLSPIVTCVVVDVSEDDPDVQISWFVNNVEVHTAQTQTHREDYNSTLRVVSALPIQHQDWMSGKEFKCKVNNKDLPAPIERTISKPKGSVRAPQVYVLPPPEEEMTKKQVTLTCMVTDFMPEDIYVEWTNNGKTELNYKNTEPVLDSDGSYFMYSKLRVEKKNWVERNSYSCSVVHEGLHNHHTTKSFSRTPGK
light: not shown
Regarding B1, the signal intensity after subtraction of control signal in assay [1] was 0 AU; in assay [2] it was 24 AU.

B2: MAB602 (antibody, from another filing, IgG2a, V domains shown)
VH: EVQLQESGPGLVAPSQSLSITCTVSGFSLTNYDISWIRQPPGKGLEWLGVIWTGGGTNYNSGFMSRLSITKDNSKSQVFLKMNSLQTDDTAIYYCVRQGRTPYWGQGTLVTVSA
VL: DIQVTQSPSSLSVSLGDRVTITCKASKDIYNRLAWYQQKPGNAPRLLISGATSLETGVPSRFSGSGSGKDYTLTITSLQTEDVATYYCQQFWGTPYTFGGGTKLEIKR
Turning to B2, the absorbance (OD450) in [3] came out at 1.1 OD450. Moreover, the signal intensity after subtraction of control signal was found to be 46000 AU in assay [4]; 21400 AU in assay [5]; 0 AU in [6]; 42800 AU in assay [7]; 49700 AU in [8]; 28800 AU in [9]. The signal intensity after subtraction of control signal amounted to 0 AU in assay [10]; 0 AU in [11]; 13400 AU in assay [12]; 246 AU in [13]; 13100 AU in assay [14]; 5250 AU in assay [15]. Moreover, the signal intensity after subtraction of control signal was determined as 3020 AU in assay [16]; 5030 AU in assay [17]; 5220 AU in [18]; 46000 AU in assay [19]; 13300 AU in [20]; 49700 AU in assay [21]. Besides, the signal intensity after subtraction of control signal in assay [22] was found to be 28800 AU; in assay [23], 5250 AU; in assay [24], 7510 AU; in [25] it was 5000 AU; in assay [26], 3290 AU. This molecule also yielded a response units (RU) in [27] of over 10 RU. Also, the Kd in [28] amounted to 9.7 nM. Also, the koff in assay [28] is 0.000494 s⁻¹.
